Test results: patent US20070264679A1, “Method for analyzing the activity of lipoxygenase using a water-soluble substrate” (Chungnam National University Industry Collaboration …, priority 2006, published 2007)

Tests used:
[1] = substrate: CCCCC/C=C\C/C=C\C/C=C\C/C=C\CCCC(=O)O; experiment: Kinetics of oxygenation of arachidonic acid or arachidonoyl-lysophospholipids by soybean LOX-1; format: biochemical; conditions: other: soybean LOX-1 2.5 units/ml, 50 mM borax buffer pH 9.0, 25° C.
Procedure: Activities of various LOXs were monitored by measuring the increase in absorbance at 234 nm due to the formation of hydroperoxide (ε234=25,000 M^−1 cm^−1) at 25° C. as described before (Smith et al, J. Biol. Chem. 247 (1972) 1038-1047). One unit is defined as the amount of LOXs that can produce one nanomole of conjugated diene per min. The reaction mixture (500 μl) included reticulocyte LOX (2 units/ml) in 50 mM phosphate buffer (pH 7.4), porcine leukocyte LOX (1 unit/ml) in 100 mM phosphate buffer (pH 7.5) containing 5 mM EDTA and 0.03% Tween 20, or soybean LOX-1 (2.5 units/ml) in 50 mM borax buffer (pH 9.0) at 25° C. The reactions were started by including each substrate (100 μM) into the above reaction mixture.
Reticulocyte LOX (2 units/ml), leukocyte LOX (1 units/ml) or soybean LOX-1 (2.5 units/ml) was incubated with each arachidonoyl derivative substrate of various concentrations as described above. The values of kinetic parameters were obtained according to Lineweaver Burke plot analyses as described before (Barroso et al, J. Chromatogr. B. Analyt. Technol. Biomed. Life. Sci. 814 (2005) 21-28).

[2] = substrate: CC/C=C\C/C=C\C/C=C\C/C=C\C/C=C\C/C=C\CCC(=O)O; experiment: Kinetics of oxygenation of docosahexaenoic acid derivatives by soybean LOX-1; format: biochemical; conditions: other: soybean LOX-1 2.5 units/ml, 50 mM borax buffer pH 9.0, 25° C.
Procedure: Soybean LOX-1 (2.5 units/ml) was incubated with docosahexaenoyl-lysoPC, didocosahexaenoyl-lysoPC or docosahexaenoic acid of various concentrations in 500 μl of 50 mM borax buffer (pH 9.0) at 25° C. Values were expressed as means ±S.D. of results from at least three independent experiments.

B1: soybean LOX-1 (Glycine max) (protein)
chain: MFSAGHKIKGTVVLMPKNELEVNPDGSAVDNLNAFLGRSVSLQLISATKADAHGKGKVGKDTFLEGINTSLPTLGAGESAFNIHFEWDGSMGIPGAFYIKNYMQVEFFLKSLTLEAISNQGTIRFVCNSWVYNTKLYKSVRIFFANHTYVPSETPAPLVSYREEELKSLRGNGTGERKEYDRIYDYDVYNDLGNPDKSEKLARPVLGGSSTFPYPRRGRTGRGPTVTDPNTEKQGEVFYVPRDENLGHLKSKDALEIGTKSLSQIVQPAFESAFDLKSTPIEFHSFQDVHDLYEGGIKLPRDVISTIIPLPVIKELYRTDGQHILKFPQPHVVQVSQSAWMTDEEFAREMIAGVNPCVIRGLEEFPPKSNLDPAIYGDQSSKITADSLDLDGYTMDEALGSRRLFMLDYHDIFMPYVRQINQLNSAKTYATRTILFLREDGTLKPVAIELSLPHSAGDLSAAVSQVVLPAKEGVESTIWLLAKAYVIVNDSCYHQLMSHWLNTHAAMEPFVIATHRHLSVLHPIYKLLTPHYRNNMNINALARQSLINANGIIETTFLPSKYSVEMSSAVYKNWVFTDQALPADLIKRGVAIKDPSTPHGVRLLIEDYPYAADGLEIWAAIKTWVQEYVPLYYARDDDVKNDSELQHWWKEAVEKGHGDLKDKPWWPKLQTLEDLVEVCLIIIWIASALHAAVNFGQYPYGGLIMNRPTASRRLLPEKGTPEYEEMINNHEKAYLRTITSKLPTLISLSVIEILSTHASDEVYLGQRDNPHWTSDSKALQAFQKFGNKLKEIEEKLVRRNNDPSLQGNRLGPVQLPYTLLYPSSEEGLTFRGIPNSISI
notes: purchased Sigma-Aldrich Corp (St. Louis, Mo., USA) lipoxidase Type I-B
**Q.** Which Km [1] does the source give for B1 here?
**A.** 12.4 µM

**Q.** What about the Vmax [1] of the same protein?
**A.** 92200 nmol/min/mg

**Q.** What about the Vmax/Km [1] of the same protein?
**A.** 7.4e+06 µL/min/mg

**Q.** And the Km [2]?
**A.** 16.8 ± 1.4 µM

**Q.** What about the Vmax [2] of the same protein?
**A.** 178000 nmol/min/mg
